Measured values: US20160272937A1, “METHODS OF GENERATING INTERMEDIATE MESODERM CELLS FROM HUMAN PLURIPOTENT STEM CELLS” (THE BRIGHAM AND WOMEN'S HOSPITAL, INC., priority 2013, published 2016)

Experiments:
Assay type in all cases: cell-based, human
CHIR-induced hPSCs [1] = assay: Definitive endoderm differentiation of CHIR-induced hPSCs (SOX17/FOXA2 immunostaining)
Experimental: Mesendoderm differentiation—the media is changed to Advanced RPMI (A-RPMI, Invitrogen) supplemented with 1×L-glutamax and 1× penicillin/streptomycin and either CHIR99021 (CHIR, Stemgent), human Wnt3a (R&D systems), and/or human activin A (R&D systems) at the doses described. […] Hepatic differentiation—cells at the definitive endoderm stage are treated with A-RPMI+1×L-glu+1×P/S+1×B27 supplement (Invitrogen)+20 ng/mL BMP-4 (R&D systems)+10 ng/mL FGF2 (Invitrogen) for 5 days, then A-RPMI+1×L-glu+1×P/S+1×B27+10 ng/mL HGF for 5 days, then HCM Hepatocyte Culture Medium (Lonza) supplemented with 20 ng/mL Oncostatin M and 10 ng/mL HGF (Peprotech) for 5 days. Pancreatic differentiation—cells at the definitive endoderm stage are treated with DMEM/F12+2% FBS (Hyclone)+50 ng/mL FGF7 (R&D systems) for 2 days, then high-glucose DMEM (Mediatech)+1% B27+2 μM retinoic acid (Sigma)+0.25 μM KAAD cyclopamine (EMD Millipore)+100 ng/mL recombinant human Noggin (R&D systems) for 4 days, then high-glucose DMEM+1% B27+100 ng/mL Noggin+300 nM indolactam V (Stemgent)+1 μM ALK5 inhibitor II (Axxora) for 4 days. […]
Nuclei can be counterstained with DAPI (Sigma). […] Immunofluorescence is visualized using an inverted fluorescence microscope (Nikon Eclipse Ti, Tokyo, Japan). Quantification is performed by counting a minimum of five random fields at 10× magnification. […]

[2] = tested on: hPSC-derived PAX2+LHX1+ cells; assay: SIX2 induction in PAX2+LHX1+ cells (cap mesenchyme differentiation, immunofluorescence); settings: activin A 10 ng/ml added on day 3, 5 additional days
CHIR-induced hPSCs [3] = assay: Growth factor screen for PAX2 induction in CHIR-induced mesendodermal cells (immunostaining); settings: CHIR 24 hours then increasing doses of factor, day 4
Experimental: For immunofluorescence studies, cultures are washed once with PBS (Invitrogen) and fixed in 4% paraformaldehyde for 15 min at room temperature (RT). Fixed cells are then washed three times in PBS and incubated in blocking buffer (0.3% Triton X-100 (Fisher Scientific) and 5% normal donkey serum (EMD Millipore) in PBS) for 1 hour at RT.
The cells are then incubated with primary antibody overnight at 4° C. or for 2 hours at RT in antibody dilution buffer (0.3% Triton X-100 and 1% BSA (Roche) in PBS). Cells are then washed three times in PBS and incubated with Alexa Fluor 488-, 555-, or 647-conjugated secondary antibodies (1:500) (Molecular Probes) in antibody dilution buffer for 1 hour at RT. For immunostaining with Biotinylated Lotus Tetragonolobus Lectin (LTL, Vector Labs), a Streptavidin/Biotin Blocking Kit (Vector Labs) and Alexa Fluor 488- or 647-conjugated Streptavidin (Molecular Probes) were used according to manufacturer's instructions.
Nuclei can be counterstained with DAPI (Sigma). […] Immunofluorescence is visualized using an inverted fluorescence microscope (Nikon Eclipse Ti, Tokyo, Japan). Quantification is performed by counting a minimum of five random fields at 10× magnification.
PAX2 is selected since it is an early marker of IM, and, unlike the markers OSR1 or LHX1 which are also expressed in the adjacent lateral plate mesoderm, PAX2 expression is restricted in mesoderm to the IM.

B1: activin A: human activin A (R&D systems) (protein, UniProt P08476 311-426, looked up)
Inhibin beta A chain: GLECDGKVNICCKKQFFVSFKDIGWNDWIIAPSGYHANYCEGECPSHIAGTSGSSLSFHSTVINHYRMRGHSPFANLKSCCVPTKLRPMSMLYYDDGQNIIKKDIQNMIVEECGCS
modifications: Inhibin beta A chain
- number of SOX17+ cells (CHIR-induced hPSCs [1]; activin A added after 48 hours of CHIR treatment, 4 days of differentiation): markedly reduced
- efficiency of SOX17+FOXA2+ definitive endoderm generation (CHIR-induced hPSCs [1]; high doses of activin A after 24 hours of CHIR treatment, 2-3 days of subsequent differentiation): greater than 95%
- SIX2+ cells by immunofluorescence [2]: small populations of SIX2+ cells
- PAX2 expression (CHIR-induced hPSCs [3]): no PAX2 expression
